Here are results for 60 sequences from the supplement of paper PMC7877785.

± gives the uncertainty stated by the source.

The nature of this data set: self-splicing fitness, log relative to wild type (ln ratio); higher = more splicing; Tetrahymena group I intron in knt gene, E. coli kanamycin selection, DiMSum; sequences stand for … in CUCUCU…GGAGGGAAAAGUUAUCAGGCAUGCACCUGGUAGCUAGUCUUUAAACCAAUAGAUUGCAUCGGUUUAAAAGGCAAGACCGUCAAAUUGCGGGAAAGGGGUCAACAGCCGUUCAGUACCAAGUCUCAGGGGAAACUUUGAGAUGGCCUUGCAAAGGGUAUGGUAAUAAGCUGACGGACAUGGUCCUAACCACGCAGCCAAGUCCUAAGUCAACAGAUCUUCUGUUGAUAUGGAUGCAGUUCACAGACUAAAUGUCGGUCGGGGAAGAUGUAUUCUUCUCAUAAGAUAUAGUCGGACCUCUCCUUAAUGGGAGCUAGCGGAUGAAGUGAUGCAACACUGGAGCCGCUGGGAACUAAUUUGUAUGCGAAAGUAUAUUGAUUAGUUUUGGAGUACUCGUGGUCG
The procedure, abridged: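 The eight P1ex-region nucleotides of an intron in the knt kanamycin-resistance gene on pET-22b(+) were all randomised and the library put into E. coli BL21(DE3). Six replicate transformations were grown overnight at 37°C or 30°C on LB agar with or without 25 μg/mL kanamycin, together with 100 μg/mL carbenicillin, 50 μM IPTG and 0.2% rhamnose. Colonies were pooled and amplicon-sequenced on an Illumina HiSeq 2500. Fitness from DiMSum is the error-weighted combination of wild-type-normalised replicate fold changes, kanamycin over none.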

For the sequence AUCUAGCAAUAUUACGAUAG, the “self-splicing fitness (ln)” value reads like this: (30 °C) -2.36 ± 0.33; (37 °C) -1.16 ± 0.44.
In the same order, the values of AUCUAGCAAUAUUACGAUUG are -3.1 ± 0.28 and -2.79 ± 0.34.
In the same order, the values of AUCUAGCAAUAUUACGCAAU are -2.02 ± 0.089 and -1.37 ± 0.09.
On the same counts, the results for AUCUAGCAAUAUUACGCGAC are -2.29 ± 0.4 and -0.43 ± 0.39.
Turning to AUCUAGCAAUAUUACGCGAU, the “self-splicing fitness (ln)” value (37 °C) is -2.53 ± 0.29.
With AUCUAGCAAUAUUACGCGUA, the “self-splicing fitness (ln)” value by setting is: (30 °C) -0.86 ± 0.11; (37 °C) -0.721 ± 0.13.
On the same counts, the results for AUCUAGCAAUAUUACGCUAC are -1.85 ± 0.34 and -1.72 ± 0.4.
On to AUCUAGCAAUAUUACGGAAU, for which the “self-splicing fitness (ln)” value by setting is: (30 °C) -1.87 ± 0.16; (37 °C) -2.1 ± 0.19.
On the same counts, the results for AUCUAGCAAUAUUACGGACC are -0.962 ± 0.16 and -0.141 ± 0.23.
In the same order, the values of AUCUAGCAAUAUUACGGCCU are -0.214 ± 0.1 and -0.589 ± 0.14.
In the same order, the values of AUCUAGCAAUAUUACGGUCC are -1.34 ± 0.21 and 1.22 ± 0.25.
In the case of AUCUAGCAAUAUUACGUAGC, the “self-splicing fitness (ln)” value reads like this: (30 °C) -3.71 ± 0.35; (37 °C) -1.84 ± 0.27.
In the same order, the values of AUCUAGCAAUAUUACGUCCU are -1.07 ± 0.078 and 0.137 ± 0.096.
In the same order, the values of AUCUAGCAAUAUUACGUUGA are -2.53 ± 0.11 and -1.7 ± 0.11.
On the same counts, the results for AUCUAGCAAUAUUACGUUGU are -3.68 ± 0.17 and -2.27 ± 0.13.
Consider AUGAAGCAAUAUUACGAACG, for which the “self-splicing fitness (ln)” value is -0.583 ± 0.094 (30 °C) and 0.0323 ± 0.12 (37 °C).
On the same counts, the results for AUGAAGCAAUAUUACGACAU are 0.292 ± 0.012 and 0.49 ± 0.032.
As for AUGAAGCAAUAUUACGACCG, the “self-splicing fitness (ln)” value is -0.584 ± 0.24 (30 °C) and -0.447 ± 0.27 (37 °C).
In the same order, the values of AUGAAGCAAUAUUACGACUA are 0.0947 ± 0.059 and -0.133 ± 0.059.
Take AUGAAGCAAUAUUACGAGAC: the “self-splicing fitness (ln)” value by setting is: (30 °C) -2.73 ± 0.43; (37 °C) -1.28 ± 0.47.
On the same counts, the results for AUGAAGCAAUAUUACGAGAG are -2.78 ± 0.15 and -0.788 ± 0.1.
On the same counts, the results for AUGAAGCAAUAUUACGAGAU are -2.93 ± 0.21 and -1.28 ± 0.21.
Regarding AUGAAGCAAUAUUACGAGGG, the “self-splicing fitness (ln)” value was -2.64 ± 0.21 (30 °C) and -2.83 ± 0.28 (37 °C).
On the same counts, the results for AUGAAGCAAUAUUACGAGGU are -3.32 ± 0.15 and -2.07 ± 0.18.
In the same order, the values of AUGAAGCAAUAUUACGAUAG are -4.07 ± 0.39 and -2.33 ± 0.32.
As for AUGAAGCAAUAUUACGAUCU, the “self-splicing fitness (ln)” value is, setting by setting: (30 °C) -0.0854 ± 0.072; (37 °C) 0.317 ± 0.088.
AUGAAGCAAUAUUACGAUUU: the “self-splicing fitness (ln)” value is 0.114 ± 0.062 (30 °C) and 0.345 ± 0.071 (37 °C).
On the same counts, the results for AUGAAGCAAUAUUACGCACA are 0.703 ± 0.097 and 0.63 ± 0.14.
On the same counts, the results for AUGAAGCAAUAUUACGCAGU are -1.36 ± 0.11 and -0.415 ± 0.11.
Turning to AUGAAGCAAUAUUACGCCGU, the “self-splicing fitness (ln)” value was -0.474 ± 0.12 (30 °C) and -0.0165 ± 0.14 (37 °C).
On the same counts, the results for AUGAAGCAAUAUUACGCGCG are -0.094 ± 0.087 and -0.808 ± 0.098.
On the same counts, the results for AUGAAGCAAUAUUACGCGGG are -1.39 ± 0.11 and -0.785 ± 0.14.
On the same counts, the results for AUGAAGCAAUAUUACGGCAG are 0.378 ± 0.086 and -0.115 ± 0.1.
Regarding AUGAAGCAAUAUUACGGUAG, the “self-splicing fitness (ln)” value runs as follows: (30 °C) -2.93 ± 0.17; (37 °C) -2.03 ± 0.23.
On the same counts, the results for AUGAAGCAAUAUUACGGUAU are -0.945 ± 0.066 and -0.484 ± 0.086.
On the same counts, the results for AUGAAGCAAUAUUACGUAAA are -1.99 ± 0.09 and -1.27 ± 0.11.
In the same order, the values of AUGAAGCAAUAUUACGUAGG are -2.79 ± 0.16 and -1.25 ± 0.18.
On to AUGAAGCAAUAUUACGUAUC, for which the “self-splicing fitness (ln)” value is -4.1 ± 0.24 (30 °C) and -1.99 ± 0.18 (37 °C).
On the same counts, the results for AUGAAGCAAUAUUACGUCAG are -0.198 ± 0.057 and 0.134 ± 0.073.
With AUGAAGCAAUAUUACGUCUG, the “self-splicing fitness (ln)” value is -0.0483 ± 0.061 (30 °C) and 0.316 ± 0.079 (37 °C).
In the same order, the values of AUGAAGCAAUAUUACGUGGU are -1.71 ± 0.07 and -1.31 ± 0.087.
In the same order, the values of AUGAAGCAAUAUUACGUUUC are -4.39 ± 0.2 and -3.03 ± 0.15.
On the same counts, the results for AUGCAGCAAUAUUACGAACA are -0.00786 ± 0.13 and 0.392 ± 0.16.
Take AUGCAGCAAUAUUACGACAA: the “self-splicing fitness (ln)” value by setting is: (30 °C) -0.348 ± 0.075; (37 °C) -0.366 ± 0.093.
In the case of AUGCAGCAAUAUUACGAGCG, the “self-splicing fitness (ln)” value is -0.487 ± 0.063 (30 °C) and -0.0426 ± 0.084 (37 °C).
In the case of AUGCAGCAAUAUUACGAGUU, the “self-splicing fitness (ln)” value was -3.2 ± 0.11 (30 °C) and -1.39 ± 0.1 (37 °C).
As for AUGCAGCAAUAUUACGAUAG, the “self-splicing fitness (ln)” value (30 °C) was -2.99 ± 0.19 and the “self-splicing fitness (ln)” value (37 °C) is -2.57 ± 0.22.
On the same counts, the results for AUGCAGCAAUAUUACGCAAC are -2.42 ± 0.18 and -2.58 ± 0.2.
On the same counts, the results for AUGCAGCAAUAUUACGCCGA are -1.55 ± 0.14 and -0.543 ± 0.17.
On the same counts, the results for AUGCAGCAAUAUUACGCGCG are -0.941 ± 0.1 and -0.349 ± 0.1.
Consider AUGCAGCAAUAUUACGCGGU, for which the “self-splicing fitness (ln)” value is -4.01 ± 0.21 (30 °C) and -1.85 ± 0.16 (37 °C).
In the same order, the values of AUGCAGCAAUAUUACGCUAC are -3.31 ± 0.21 and -2.38 ± 0.23.
In the same order, the values of AUGCAGCAAUAUUACGGACC are -1.52 ± 0.17 and -0.744 ± 0.17.
For AUGCAGCAAUAUUACGGGAA, the “self-splicing fitness (ln)” value is -2.83 ± 0.16 (30 °C) and -1.92 ± 0.14 (37 °C).
In the same order, the values of AUGCAGCAAUAUUACGGGCG are 0.108 ± 0.089 and 0.464 ± 0.11.
In the same order, the values of AUGCAGCAAUAUUACGGGGA are -2.64 ± 0.16 and -2.26 ± 0.18.
On the same counts, the results for AUGCAGCAAUAUUACGGUGU are -3.52 ± 0.16 and -1.63 ± 0.14.
For AUGCAGCAAUAUUACGUAUA, the “self-splicing fitness (ln)” value (30 °C) was -2.57 ± 0.27 and the “self-splicing fitness (ln)” value (37 °C) was -1.6 ± 0.16.
On the same counts, the results for AUGCAGCAAUAUUACGUCUU are 0.0107 ± 0.076 and 0.303 ± 0.082.
Consider AUGCAGCAAUAUUACGUGCA, for which the “self-splicing fitness (ln)” value by setting is: (30 °C) -2.07 ± 0.1; (37 °C) -0.922 ± 0.1.
